The target of this assay is KIR3DL2CD3ε fusion protein on Jurkat reporter cells (UniProt P43630). As to the kind of experiment: cell-based or functional assay.
Sequence of KIR3DL2CD3ε fusion protein on Jurkat reporter cells (P43630 other isoform, or with tags, fused parts or gaps limits assumed): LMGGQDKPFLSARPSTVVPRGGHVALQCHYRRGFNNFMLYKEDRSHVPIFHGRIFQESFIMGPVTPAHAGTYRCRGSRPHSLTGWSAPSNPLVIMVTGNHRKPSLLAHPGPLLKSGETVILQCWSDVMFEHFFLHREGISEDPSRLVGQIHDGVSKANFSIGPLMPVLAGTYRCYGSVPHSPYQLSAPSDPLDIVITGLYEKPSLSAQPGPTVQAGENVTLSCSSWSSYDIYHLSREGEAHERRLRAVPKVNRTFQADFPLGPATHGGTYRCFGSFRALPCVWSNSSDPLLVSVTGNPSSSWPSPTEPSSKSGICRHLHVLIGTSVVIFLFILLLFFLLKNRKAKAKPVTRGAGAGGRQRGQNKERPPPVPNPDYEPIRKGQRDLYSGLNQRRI

“HLA-B27 on transfected LCL.LBL.721.221 cells (ligand)” gave an IL-2 production by KIR3DL2CD3ε transduced Jurkat reporter cells (ELISA) of 6 fold.
